# Laboratory results from the nanobody polyreactivity screen of Harvey et al. (2022).
# Assay: yeast display, Sf9 membrane polyspecificity reagent, FACS + sequencing; frameworks hold sequencing errors
# Method in brief: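 Galactose induction of a Saccharomyces cerevisiae BJ5465 synthetic nanobody display library ran 36–48 hours. The cells were then stained for 1 hour at 4 °C with 10% biotinylated, detergent-solubilized Sf9 membrane reagent, pulled down on streptavidin microbeads and FACS-sorted into low and high (top ~1%) gates on expression and reagent-binding fluorescence. Labels for polyreactivity follow the gate of origin.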
row,Sequence,polyreactivity (PSR sort gate)
1,QVQLVESGGGLVQAGGSLRLSCAASGRIFGYYAMGWYRQAPGKERELVAAIYSGGSTYYADSVKGRFTISRDNAKNTVYLQMNSLKPEDTAVYYCAAYYYGWYTPSQSPKYDYWGQGTQVTVSS,high polyreactivity
2,QVQLVESGGGLVQAGGSLRLSCAASGRIFGYYAMGWYRQAPGKERELVADITESGTSTYYADSVKGRFTISRDNAKNTVYLQMNSLKPEDTAVYYCAAGYWWRYALYGYWGQGTQVTVSS,low polyreactivity
3,QVQLVESGGGLVQAGGSLRLSCAASGRIFGYYAMGWYRQAPGKERELVAGIDWSGGNTYYADSVKGRFTISRDNAKNTVYLQMNSLKPEDTAVYYCNTEGGRDTAWYDYWGQGTQVTVSS,low polyreactivity
4,QVQLVESGGGLVQAGGSLRLSCAASGRIFGYYDMGWYRQAPGKERELVAAITWSGGSTYYADSVKGRFTISRDNAKNTVYLQMNSLKPEDTAVYYCAAEKRYRKAFDYWGQGTQVTVSS,high polyreactivity
5,QVQLVESGGGLVQAGGSLRLSCAASGRIFGYYGRGWYRQAPGKERELVARISGRGGSTYYADSVKGRFTLSRDNAKNTVYLQINSLKPEDTAVYYCNVVFSFWQYYAYDQGDYWGQGTQVTVSS,low polyreactivity
6,QVQLVESGGGLVQAGGSLRLSCAASGRIFGYYVMGWYRQAPGKDRELVATISRVGTTNYADSVKGRFTISRDNAKNTVYLQMNSLKPEDTAVYYCNADYTGHRGGNDYWGQGTQVTVSS,low polyreactivity
7,QVQLVESGGGLVQAGGSLRLSCAASGRIFGYYVMGWYRQAPGKERELVAAISRSGGSTYYADSVKGRFTISRDNAKNTVYLQMNSLKPEDTAVYYCAKRVCTYGFSGYDYWGQGTQVTVSS,high polyreactivity
8,QVQLVESGGGLVQAGGSLRLSCAASGRIFHFNAMGWYRQAPGKERELVATITKRGGRTYYADSVKGRFTISRDNAKNTVYLQMNSLKPEDTAVYYCNADQSRYSAVSGYDYWGQGTQVTVSS,high polyreactivity
9,QVQLVESGGGLVQAGGSLRLSCAASGRIFHGNAMGWYRPAPGKERELVAAITSGGRTFYADSVKGRFTISRDNAKNTVYLQMNRLKPEDTAVYYCNAPSIAGYAEYNSHDYWGQGTQVTVSS,high polyreactivity
10,QVQLVESGGGLVQAGGSLRLSCAASGRIFHGNAMGWYRQAPGKEREMVAAITSGGRTFYADSVKGRFTISRDNAKNTVYLQMNSLIPEDTAVFYCNAPSIAGYAEYNSHDYWGQGTQVTVSS,high polyreactivity
11,QVQLVESGGGLVQAGGSLRLSCAASGRIFHGYAMGWYRQAPGKERELVGAINSSGGSTYYADSVKGRFTISRDNAKNTVYLQMNSLKPQDTAVYYCAADWVVSGNNPTVDTYFWYEYWGQGTQVTVSS,low polyreactivity
12,QVQLVESGGGLVQAGGSLRLSCAASGRIFHIYAMGWYRQAPGKERELVAAISSDGSTYYADSVKGRFTISRDNAKNTVYLQMNSLKPEDTAVYYCAVESPQGRQCYEYWGQGTQVTVSS,low polyreactivity
13,QVQLVESGGGLVQAGGSLRLSCAASGRIFHLYAMGWYRQAPGKERELVATITYDGGSTYYADSVKGRFTISRDNAKDTVYLQMNSLKPEDTAVYYCASPSPHVGLKWEYDYWGQGTQVTVSS,low polyreactivity
14,QVQLVESGGGLVQAGGSLRLSCAASGRIFHNNAMGWYIQAPGKERELVAAISTGGSTNYADSVKGRFTISRDNAKNTVYLQMNSLKPEDTAVYYCAADHPVTYPTSKFDYWGQGTQVTVSS,low polyreactivity
15,QVQLVESGGGLVQAGGSLRLSCAASGRIFHSYAMGWYRQAPGKERELVAAISSGGNTYYADSVKGRFTISRDNAKNTVYLQMNSLKREDTAVYYCARDWDFLYDGFHSDSYEYWGQGTQVTVSS,low polyreactivity
16,QVQLVESGGGLVQAGGSLRLSCAASGRIFHYAIGWYRQAPGKESELVAGISKRGGSTYYADSVKGRFTISRDNAKNTVYLQMNSLKPEDTAVYYCSKEHYWTLNGLTSYYWGQGSQVTVSS,high polyreactivity
17,QVQLVESGGGLVQAGGSLRLSCAASGRIFIIYAMGWYRQAPGKERELVAAITSGGGSTRYADSVKGRFPISRDNAKNTVYLQMNSLKPEDTAVYYCAAARITRGRRYDYWGQGTQVTVSS,high polyreactivity
18,QVQLVESGGGLVQAGGSLRLSCAASGRIFIVNAMGWYRQAPGKERELVAAISYRGGSTYYADSVKGRFTISRDNAKNTVYLQMNSLKPEDTAVYYCNTDGYIYRYRFDYWGQGTQVTVSS,low polyreactivity
19,QVQLVESGGGLVQAGGSLRLSCAASGRIFIWYAMGWYRQAPGKERELVAAIDRSGASTYYADSVKGRFTISRDNAKNTVYLQMNSLKPEDTAVYYCAARRDVLWFQYPYGYWGQGTQVTVSS,low polyreactivity
20,QVQLVESGGGLVQAGGSLRLSCAASGRIFIWYTMGWYRQAPGNERELVASITGGGGSTYYADSVKGRFTISRDNAKNTVYFQMNSLKPEETAVYDCNAVYRRRYDYWGQGTQVTVSS,high polyreactivity
21,QVQLVESGGGLVQAGGSLRLSCAASGRIFKANDMGWYRQAPGKERELVAITSSDSTNYADSVKGRFTISRDNAKNTVYLQMNSLKPEDTAVYYCAALSYYYSDRMDYWGQGTQVTVSS,low polyreactivity
22,QVQLVESGGGLVQAGGSLRLSCAASGRIFKDTAMGWYRQAPGKDRELVAGITSIGDNTYYADSVKGRFTISRDNAKNTVYLQMHSLKPEDSAVYDCNALYPYVNGTVPRTTGEYDYWGQGTQVTVSS,low polyreactivity

row,Sequence,polyreactivity (PSR sort gate)
1,QVQLVESGGGLVQAGGSLRLSCAASGRIFKFNAMGWYRPAPGKERELVAAITTGGGSTYYADSVKGRFTISRDNAKNTVYLQMNSLKPEDSAVYYCATDRRHVYSSRRYYYWVQGTQVTVSS,high polyreactivity
2,QVQLVESGGGLVQAGGSLRLSCAASGRIFKFNAMGWYRQAPGKERELVAATWSGGRTSYADSVKGRFTISRDNAKNTVYLQMNSLKPEDTAVYYCNAADWIVVQYDYWGQGTQVTVSS,low polyreactivity
3,QVQLVESGGGLVQAGGSLRLSCAASGRIFKFNAMGWYRQAPGKVRELVAATWSGGRTSYADSVKGRFTISRDNAKNTVYLQMNSLKPEDTAVYYCNAADWIDVQYDYGGQGTQVTVSS,low polyreactivity
4,QVQLVESGGGLVQAGGSLRLSCAASGRIFKGYAMGWYRQAPGKERELVAAITWRGGTTYYADSVKGRFTISRDNAKNTVYLQMNSLKPEDTAVYYCAAVTRRYVLSTFYYWGQGTQVTVSS,high polyreactivity
5,QVQLVESGGGLVQAGGSLRLSCAASGRIFKGYVMGWYRQAPGKERELVAAISKSGGRTYYADPVKGRFTISRDNAKNTVYLQMNSLKPEDTAVYYCNAVGVVTYSFYYWGQGTQVTVSS,high polyreactivity
6,QVQLVESGGGLVQAGGSLRLSCAASGRIFKHYAMGWSRQAPGKERELVAAITNGGRTNYADSVKGRFTISRDNAKNTVYLQMNSLKPADTAVYYGNSESSPPYSITKFDYWGQGTQVTVSS,low polyreactivity
7,QVQLVESGGGLVQAGGSLRLSCAASGRIFKINAMGWSRQAPGKERDLVATISYSAGRTYYADSEKGRFTISRDSAKNTVYLQMNSLKPEDTAVYYCAARISSYWPYSLLDYWGQGTQVTVSS,high polyreactivity
8,QVQLVESGGGLVQAGGSLRLSCAASGRIFKIYSMGWYRQAPGKERELVAAISYRGTSTYYADSVKGRFTISRDNAKNTVYLQMNSLKPEDTAVYYCARRDTYTRYYWGQGTQVTVSS,high polyreactivity
9,QVQLVESGGGLVQAGGSLRLSCAASGRIFKLYAMGWYRQAPGKERELVAAISTSGGSTYYADSVKGRFTISRDNAKNTVYLQMNSLKPEDTAVFYCAADPLSGYDYWGQGTQVTVSS,high polyreactivity
10,QVQLVESGGGLVQAGGSLRLSCAASGRIFKNNAMGWYRQAPGKERELVAVISGSGGSTYADSVKGRFTISRDNAKNTVYLQLNSLKPADTAVYYCAASRYYRIWYSLLQGYDYWGQGTQVTVSS,high polyreactivity
11,QVQLVESGGGLVQAGGSLRLSCAASGRIFKNYVMGWYRQAPGKERELVAAITYSGGSTRYADSVKGRFTISRDNAKNTVYLQMNSLKPEDTAVYYCAASRTYYRTYTFYYWGQGTQVTVSS,high polyreactivity
12,QVQLVESGGGLVQAGGSLRLSCAASGRIFKPNAMGWYRQAPVKEREFVARITRNTGSTYYADSVKGRFTISRDNAKNTVYLQMNSLKPEDTAVYYCAAGAPSYYYYWGQGTQVTVSS,high polyreactivity
13,QVQLVESGGGLVQAGGSLRLSCAASGRIFKPYVMGWYRQAPGKERELGAAISWGGGRTYYADSVKGRFTISRDNAKNTVYLQMNSLKPEDTAVYYCAAPRRFDYDWGQGTQVTVSS,low polyreactivity
14,QVQLVESGGGLVQAGGSLRLSCAASGRIFKPYVMGWYRQAPGKERELVAAITRGGSTNYADSVKGRFTISRDNAKNTVYLQMNSLKPEDTAVYDCAVYYYGTWGWDDYWGQGTQVTVSS,high polyreactivity
15,QVQLVESGGGLVQAGGSLRLSCAASGRIFKQYTMGWYRQAPGKERELVAAITSSGAGTFYADSVKGRFTISRDNAKNTVYLQMNSLKPEDTAVDYCAAAYYYASRMDYWGQGTQVTVSS,high polyreactivity
16,QVQLVESGGGLVQAGGSLRLSCAASGRIFKRNTMGWYRQAPGKERELVAAITYSGITYYADSVKGRFTISRDNAKNTVYLQMNSLKPEDTAVYYCAKVLYPIGSPRFEYWGQGTQVTVSS,low polyreactivity
17,QVQLVESGGGLVQAGGSLRLSCAASGRIFKSNAMGWYRQAPGKERELVASISRSGSTNYADSVKGRFTISRDNAKNTVYLQMNSLKPEDTAVYYCAKDPDAKGGGYDYWGQGTQVTVSS,low polyreactivity
18,QVQLVESGGGLVQAGGSLRLSCAASGRIFKSNAMGWYRQAPGKERELVASITASGGRTYYADSVKGRFTISRDNAKNTVYLQMNSLKPEDTAVYYCAAGRPFSKYGYWGQGTQVTVSS,high polyreactivity
19,QVQLVESGGGLVQAGGSLRLSCAASGRIFKSYAMGWDRQAPGKERELVAAISRSGGRTYYADSVKGRFTISRDNAKNTVYLQMNSLKPEDTAVYYCAATTIVAPYWGQGTQVTVSS,low polyreactivity
20,QVQLVESGGGLVQAGGSLRLSCAASGRIFKSYVMGWYRQAPGKERELVAAISWSGGTYYADSVMGRFTNSRDNAKNTVYLQMNCLKPEDTAVYYCAAYYLGSYNPLDYWGQGTQVTVSS,high polyreactivity
21,QVQLVESGGGLVQAGGSLRLSCAASGRIFKTNAMGWYRQAPGKERELVAGINSSDGSTYYADSVKGRFTISRDIEKNTVYLQMNSLKPEDTAVYYCAAVRYYWGQGTQVTVSS,low polyreactivity
